These results are taken from patent publication US20220372549A1, “Thermally Responsive Conjugates” (MIP Diagnostic Limited, priority 2019, published 2022).

In one data set the test system is pyrophosphatase (PPase). The conditions noted are these: cited from earlier work.
Data set [1] concerns UltraScript 2.0 Reverse Transcriptase. Conditions: 150 ng conjugate, RTase 324 nM, 30 min at 25, 43, 55 and then 35° C.; loss of product peak.
Description: The reaction was performed using the UltraScript 2.0 Reverse Transcriptase from PCR Bio (UK), according to the instructions of the manufacturer. General conditions were, for a 20 μl total reaction volume:
RNA=5 μg template plus random hexamer primers, in PCR Bio buffer mix.
Individual reaction vials were kept at the set temperature for 30 min and the reaction allowed to proceed. The temperatures used were 25° C., 43° C., 55° C. and 35° C., the latter being done after the 55° C. step. After each incubation, 1-2 μl of cDNA product was taken for qPCR amplification and quantification. Inhibition detected by observing loss of product peak.

For the substance “pyrophosphatase [unconjugated free enzyme]”, the optimum temperature in the data set on pyrophosphatase (PPase) was 45 °C.
Consider “zidovudine-poly-N-isopropylmethacrylamide”, for which the “RTase inhibition, thermal reversibility” value in data set [1] is listed as “inhibition was reversible”.
